The source of these data is JP2014141434A (dated 2014).

The target in assay [1] is T1, N末端FLAG−tag付加型ヒトROBO4細胞外領域ドメイン欠損体 hROBO4−341 (human, UniProt Q8WZ75 341-1007).
T1 construct: On HEK293 cells; also called pCI−FLAG−hROBO4−341; pCI−hROBO4−341
T1 sequence: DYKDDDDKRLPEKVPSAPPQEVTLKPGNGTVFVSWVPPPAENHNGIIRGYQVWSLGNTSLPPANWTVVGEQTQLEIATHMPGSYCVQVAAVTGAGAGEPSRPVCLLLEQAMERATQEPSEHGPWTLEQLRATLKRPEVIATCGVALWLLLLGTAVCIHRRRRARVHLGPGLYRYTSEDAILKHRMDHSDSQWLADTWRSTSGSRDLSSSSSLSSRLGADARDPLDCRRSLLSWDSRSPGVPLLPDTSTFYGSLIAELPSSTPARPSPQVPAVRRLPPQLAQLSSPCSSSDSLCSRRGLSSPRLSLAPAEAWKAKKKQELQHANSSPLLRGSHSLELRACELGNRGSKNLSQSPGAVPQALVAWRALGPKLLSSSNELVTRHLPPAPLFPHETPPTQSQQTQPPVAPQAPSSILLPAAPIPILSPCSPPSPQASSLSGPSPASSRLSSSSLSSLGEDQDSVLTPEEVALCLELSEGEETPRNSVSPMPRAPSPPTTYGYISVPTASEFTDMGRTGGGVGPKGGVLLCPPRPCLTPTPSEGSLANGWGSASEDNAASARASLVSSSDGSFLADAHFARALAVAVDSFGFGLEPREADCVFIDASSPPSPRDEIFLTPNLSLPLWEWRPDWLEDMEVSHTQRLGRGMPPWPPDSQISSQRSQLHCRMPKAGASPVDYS
Briefly: flow cytometry, transfected HEK293 cells.

Assay [2] has as its target T2, N末端FLAG−tag付加型ヒトROBO4細胞外領域ドメイン欠損体 hROBO4−225 (human, UniProt Q8WZ75 225-1007).
T2 construct: On HEK293 cells; also called pCI−FLAG−hROBO4−225; pCI−hROBO4−225
T2 sequence: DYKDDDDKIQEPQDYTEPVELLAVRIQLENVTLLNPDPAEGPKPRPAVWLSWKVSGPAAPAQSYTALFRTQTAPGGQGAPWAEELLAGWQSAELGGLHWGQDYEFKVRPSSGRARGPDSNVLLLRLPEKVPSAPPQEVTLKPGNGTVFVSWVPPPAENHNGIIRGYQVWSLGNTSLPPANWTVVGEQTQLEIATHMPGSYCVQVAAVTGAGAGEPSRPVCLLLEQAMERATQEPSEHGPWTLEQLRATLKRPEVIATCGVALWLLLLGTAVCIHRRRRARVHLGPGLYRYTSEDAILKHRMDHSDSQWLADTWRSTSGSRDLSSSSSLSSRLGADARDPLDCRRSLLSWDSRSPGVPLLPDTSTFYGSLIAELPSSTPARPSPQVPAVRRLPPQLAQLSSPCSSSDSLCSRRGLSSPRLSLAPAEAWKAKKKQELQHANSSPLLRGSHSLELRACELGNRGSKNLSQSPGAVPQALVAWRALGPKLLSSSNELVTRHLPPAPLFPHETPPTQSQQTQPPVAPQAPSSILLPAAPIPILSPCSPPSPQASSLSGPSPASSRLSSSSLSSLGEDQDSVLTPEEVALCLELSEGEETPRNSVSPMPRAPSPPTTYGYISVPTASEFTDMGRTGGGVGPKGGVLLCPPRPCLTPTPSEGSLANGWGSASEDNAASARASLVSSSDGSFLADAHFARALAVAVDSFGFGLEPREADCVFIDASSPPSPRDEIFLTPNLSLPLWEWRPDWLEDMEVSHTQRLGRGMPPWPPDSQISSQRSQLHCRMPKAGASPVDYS
Put plainly: flow cytometry, transfected HEK293 cells. A general note: A flow cytometer gives signals particle by particle.

The target in assay [3] is T3, 全長ヒトROBO4 (pCI−hROBO4導入細胞) (human, UniProt Q8WZ75 28-1007).
T3 construct: Expressed from pCI-hROBO4 on HEK293 / HEK293T cells; also called human ROBO4
T3 sequence: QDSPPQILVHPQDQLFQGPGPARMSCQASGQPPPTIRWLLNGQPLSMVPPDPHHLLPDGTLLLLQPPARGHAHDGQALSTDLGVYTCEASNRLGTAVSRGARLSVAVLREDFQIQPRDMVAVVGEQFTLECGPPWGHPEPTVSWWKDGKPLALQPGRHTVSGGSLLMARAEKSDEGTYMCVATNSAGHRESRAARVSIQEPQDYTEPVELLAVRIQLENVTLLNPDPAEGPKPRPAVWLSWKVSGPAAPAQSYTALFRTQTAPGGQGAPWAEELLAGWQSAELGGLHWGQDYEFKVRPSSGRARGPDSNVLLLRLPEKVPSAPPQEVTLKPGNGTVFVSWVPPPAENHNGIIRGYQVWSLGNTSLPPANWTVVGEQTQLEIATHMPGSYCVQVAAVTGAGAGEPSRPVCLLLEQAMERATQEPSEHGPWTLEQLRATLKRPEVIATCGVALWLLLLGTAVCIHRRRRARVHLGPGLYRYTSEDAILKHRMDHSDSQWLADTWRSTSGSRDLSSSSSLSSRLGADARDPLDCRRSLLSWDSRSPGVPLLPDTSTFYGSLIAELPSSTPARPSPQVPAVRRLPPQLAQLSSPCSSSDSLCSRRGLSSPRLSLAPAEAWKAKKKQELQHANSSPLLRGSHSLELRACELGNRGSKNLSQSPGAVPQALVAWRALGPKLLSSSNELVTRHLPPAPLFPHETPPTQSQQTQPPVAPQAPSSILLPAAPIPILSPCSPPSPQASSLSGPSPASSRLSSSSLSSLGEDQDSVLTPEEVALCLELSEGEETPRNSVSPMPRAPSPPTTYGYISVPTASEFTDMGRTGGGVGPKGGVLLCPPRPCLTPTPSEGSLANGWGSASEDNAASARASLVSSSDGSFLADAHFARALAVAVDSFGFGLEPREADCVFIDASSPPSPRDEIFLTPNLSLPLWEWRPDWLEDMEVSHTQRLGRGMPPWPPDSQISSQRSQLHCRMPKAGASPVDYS
Briefly: flow cytometry, hybridoma supernatant on hROBO4-transfected HEK293T cells against mock cells.

B1: 抗ROBO4マウスモノクローナル抗体 MAb1 (antibody, V domains shown)
VH: EVQLVESGGGLVKPGGSLKLSCAASGFTFSTYAMSWVRQTPEKRLEWVATISNGGTYTYYPDSVKGRFTISRDNAENTLYLQMSSLRSEDTAMYFCARLIYYDYLDYWGHGTTLTVSS
VL: DAVMTQTPLSLPVSLGDQASISCRSSQSLENSNGNTYLNWYFQKPGQSPQLLIYRVSNRFSGVLDRFSGSGSGTDFTLKISRVEAEDFGVYFCLQVTHVPWTFGGGTKLEIKR
notes: Mouse IgG1 (gamma 1) / kappa from a hybridoma; The constant regions are not in the listing; also called MAb1
Consider B1, for which the binding result was “no binding (tested: 10 μg/mL)” in assay [1], “no binding (tested: 10 μg/mL)” in assay [2] and “binds” in assay [3].
